From patent EP4700044A1, “PROTEIN ANALOGUE AND USE THEREOF” (Shanghai Duomirui Biotechnology., Ltd., priority 2023, dated 2024)
Positions count from the first letter of the chain named. In names and notes the source's numbering stands.

B1: Human mature FGF21 mutant RGE (FGF21RGE), Q9NSA1 29-209 (ligand)
chain: HPIPDSSPLLQFGGQVRQRYLYTDDAQQTEAHLEIREDGTVGGAADQSPESLLQLKALKPGVIQILGVKTSRFLCQRPDGALYGSLHFDPEACSFRERLLEDGYNVYQSEAHGLPLHLPGNKSPHRDPAPRGPARFLPLPGLPPAPPEPPGILAPQPPDVGSSDPLSMVGGSQGRSPSYES
B2: Compound 5.14, Q9NSA1 29-209 (ligand)
chain: B1 chain with K122C
modifications: here or on the partner: Cys 122 (K122C) carries the albumin-binding agent of Example 2.4, C20 Dicarboxylic Acid-gGlu-AEEA-AEEA-Lys(bromoacetyl)-COOH (bromine displaced by the thiol)
B3: Human mature FGF21 mutant H125C (FGF21H125C), Q9NSA1 29-209 (ligand)
chain: B1 chain with H125C
B4: Human mature FGF21 mutant D46C (FGF21D46C), Q9NSA1 29-209 (ligand)
chain: B1 chain with D46C
B5: Compound 5.5, Q9NSA1 29-209 (ligand)
chain: B1 chain with H125C
modifications: here or on the partner: Cys 125 (H125C) carries the albumin-binding agent of Example 2.1, C18 Dicarboxylic Acid-AEEA-gGlu-gGlu-Lys(bromoacetyl)-COOH (bromine displaced by the thiol)
B6: Compound 5.6, Q9NSA1 29-209 (ligand)
chain: B1 chain with D38C
modifications: here or on the partner: Cys 38 (D38C) carries the albumin-binding agent of Example 2.2, C18 Dicarboxylic Acid-gGlu-AEEA-AEEA-Lys(bromoacetyl)-COOH (bromine displaced by the thiol)
B7: Compound 5.12, Q9NSA1 29-209 (ligand)
chain: B1 chain with H125C
modifications: here or on the partner: Cys 125 (H125C) carries the albumin-binding agent of Example 2.3, C20 Dicarboxylic Acid-AEEA-gGlu-gGlu-Lys(bromoacetyl)-COOH (bromine displaced by the thiol)
B8: Compound 5.10, Q9NSA1 29-209 (ligand)
chain: B1 chain with D46C
modifications: here or on the partner: Cys 46 (D46C) carries the albumin-binding agent of Example 2.3, C20 Dicarboxylic Acid-AEEA-gGlu-gGlu-Lys(bromoacetyl)-COOH (bromine displaced by the thiol)
B9: Compound 5.15, Q9NSA1 29-209 (ligand)
chain: B1 chain with H125C
modifications: here or on the partner: Cys 125 (H125C) carries the albumin-binding agent of Example 2.4, C20 Dicarboxylic Acid-gGlu-AEEA-AEEA-Lys(bromoacetyl)-COOH (bromine displaced by the thiol)
B10: Compound 5.13, Q9NSA1 29-209 (ligand)
chain: B1 chain with D46C
modifications: here or on the partner: Cys 46 (D46C) carries the albumin-binding agent of Example 2.4, C20 Dicarboxylic Acid-gGlu-AEEA-AEEA-Lys(bromoacetyl)-COOH (bromine displaced by the thiol)
B11: Compound 5.9, Q9NSA1 29-209 (ligand)
chain: B1 chain with H125C
modifications: here or on the partner: Cys 125 (H125C) carries the albumin-binding agent of Example 2.2, C18 Dicarboxylic Acid-gGlu-AEEA-AEEA-Lys(bromoacetyl)-COOH (bromine displaced by the thiol)
B12: Compound 5.3, Q9NSA1 29-209 (ligand)
chain: B1 chain with D46C
modifications: here or on the partner: Cys 46 (D46C) carries the albumin-binding agent of Example 2.1, C18 Dicarboxylic Acid-AEEA-gGlu-gGlu-Lys(bromoacetyl)-COOH (bromine displaced by the thiol)
B13: Compound 5.4, Q9NSA1 29-209 (ligand)
chain: B1 chain with K122C
modifications: here or on the partner: Cys 122 (K122C) carries the albumin-binding agent of Example 2.1, C18 Dicarboxylic Acid-AEEA-gGlu-gGlu-Lys(bromoacetyl)-COOH (bromine displaced by the thiol)
B14: Human mature FGF21 mutant E30C (FGF21E30C), Q9NSA1 29-209 (ligand)
chain: B1 chain with E30C
B15: Compound 5.1, Q9NSA1 29-209 (ligand)
chain: B1 chain with E30C
modifications: here or on the partner: Cys 30 (E30C) carries the albumin-binding agent of Example 2.1, C18 Dicarboxylic Acid-AEEA-gGlu-gGlu-Lys(bromoacetyl)-COOH (bromine displaced by the thiol)
B16: Compound 5.2, Q9NSA1 29-209 (ligand)
chain: B1 chain with D38C
modifications: here or on the partner: Cys 38 (D38C) carries the albumin-binding agent of Example 2.1, C18 Dicarboxylic Acid-AEEA-gGlu-gGlu-Lys(bromoacetyl)-COOH (bromine displaced by the thiol)
B17: Human mature FGF21 mutant K122C (FGF21K122C), Q9NSA1 29-209 (ligand)
chain: B1 chain with K122C
B18: Compound 5.8, Q9NSA1 29-209 (ligand)
chain: B1 chain with K122C
modifications: here or on the partner: Cys 122 (K122C) carries the albumin-binding agent of Example 2.2, C18 Dicarboxylic Acid-gGlu-AEEA-AEEA-Lys(bromoacetyl)-COOH (bromine displaced by the thiol)
B19: Compound 5.11, Q9NSA1 29-209 (ligand)
chain: B1 chain with K122C
modifications: here or on the partner: Cys 122 (K122C) carries the albumin-binding agent of Example 2.3, C20 Dicarboxylic Acid-AEEA-gGlu-gGlu-Lys(bromoacetyl)-COOH (bromine displaced by the thiol)
B20: Human mature FGF21 mutant D38C (FGF21D38C), Q9NSA1 29-209 (ligand)
chain: B1 chain with D38C
B21: Compound 5.7, Q9NSA1 29-209 (ligand)
chain: B1 chain with D46C
modifications: here or on the partner: Cys 46 (D46C) carries the albumin-binding agent of Example 2.2, C18 Dicarboxylic Acid-gGlu-AEEA-AEEA-Lys(bromoacetyl)-COOH (bromine displaced by the thiol)

Biological target: FGFR1c, P11362
Test: cell-based or functional assay

Chain of FGFR1c, P11362 (P11362 22-822): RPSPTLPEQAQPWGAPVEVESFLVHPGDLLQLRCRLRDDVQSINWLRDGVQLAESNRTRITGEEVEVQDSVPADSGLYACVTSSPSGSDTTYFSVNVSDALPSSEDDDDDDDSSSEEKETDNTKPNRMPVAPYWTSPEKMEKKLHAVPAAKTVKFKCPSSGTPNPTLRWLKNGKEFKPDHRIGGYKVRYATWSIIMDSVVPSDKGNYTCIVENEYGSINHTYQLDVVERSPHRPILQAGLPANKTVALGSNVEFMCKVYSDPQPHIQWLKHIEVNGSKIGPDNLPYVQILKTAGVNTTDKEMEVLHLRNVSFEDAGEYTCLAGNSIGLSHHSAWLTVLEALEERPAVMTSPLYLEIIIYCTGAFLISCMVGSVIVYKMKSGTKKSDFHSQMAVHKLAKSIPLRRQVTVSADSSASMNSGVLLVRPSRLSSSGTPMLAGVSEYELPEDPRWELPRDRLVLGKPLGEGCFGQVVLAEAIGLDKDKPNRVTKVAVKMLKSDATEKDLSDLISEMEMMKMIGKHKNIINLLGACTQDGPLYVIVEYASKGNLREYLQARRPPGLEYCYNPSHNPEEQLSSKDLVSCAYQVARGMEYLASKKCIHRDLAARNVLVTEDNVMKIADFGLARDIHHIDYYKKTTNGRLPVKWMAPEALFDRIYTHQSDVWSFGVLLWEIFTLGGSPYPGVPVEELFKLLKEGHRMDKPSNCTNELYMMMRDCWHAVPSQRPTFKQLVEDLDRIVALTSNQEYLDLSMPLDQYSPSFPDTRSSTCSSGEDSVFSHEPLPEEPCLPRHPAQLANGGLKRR

Binder | EC50(nM), dual-luciferase reporter gene assay, iLite FGF21 assay ready cells
B1 | 0.25 nM
B2 | 1.02 nM
B3 | 0.28 nM
B4 | 0.28 nM
B5 | 0.52 nM
B6 | 2.06 nM
B7 | 1.4 nM
B8 | 2.69 nM
B9 | 0.47 nM
B10 | 1.84 nM
B11 | 1.18 nM
B12 | 0.24 nM
B13 | 0.99 nM
B14 | 1.31 nM
B15 | 4.61 nM
B16 | 1.99 nM
B17 | 0.3 nM
B18 | 1.13 nM
B19 | 2.09 nM
B20 | 1 nM
B21 | 1.06 nM
